Values belong to the molecule of their own block, whether it stands above or below them.
Experiments:
14-3-3θ = 14-3-3θ (UniProt P27348); assay: anti-Flag co-IP, 14-3-3θ blot; conditions: reference: wild type; sites S325
[1] = biological target: T1, Flag-tagged retinoic acid induced 16 (RAI16), full length (UniProt Q86V87 1-743); assay: co-IP; Flag-tagged RAI16 or its mutants expressed in HEK293T cells, alone or with Ha-tagged PKA-RIIα; anti-Flag immunoprecipitation, endogenous 14-3-3θ detected with anti-14-3-3θ antibody; cells untreated, treated with forskolin or with forskolin + PKImyr; conditions: partners not purified
T1 construct: 743 residues by the printed fragment limits; also called Flag-RAI16; Fam160B2; source: HEK293T, transfected (pcDNA3.1), in lysate
T1 sequence (Q86V87 whole entry, the tested form may be a part): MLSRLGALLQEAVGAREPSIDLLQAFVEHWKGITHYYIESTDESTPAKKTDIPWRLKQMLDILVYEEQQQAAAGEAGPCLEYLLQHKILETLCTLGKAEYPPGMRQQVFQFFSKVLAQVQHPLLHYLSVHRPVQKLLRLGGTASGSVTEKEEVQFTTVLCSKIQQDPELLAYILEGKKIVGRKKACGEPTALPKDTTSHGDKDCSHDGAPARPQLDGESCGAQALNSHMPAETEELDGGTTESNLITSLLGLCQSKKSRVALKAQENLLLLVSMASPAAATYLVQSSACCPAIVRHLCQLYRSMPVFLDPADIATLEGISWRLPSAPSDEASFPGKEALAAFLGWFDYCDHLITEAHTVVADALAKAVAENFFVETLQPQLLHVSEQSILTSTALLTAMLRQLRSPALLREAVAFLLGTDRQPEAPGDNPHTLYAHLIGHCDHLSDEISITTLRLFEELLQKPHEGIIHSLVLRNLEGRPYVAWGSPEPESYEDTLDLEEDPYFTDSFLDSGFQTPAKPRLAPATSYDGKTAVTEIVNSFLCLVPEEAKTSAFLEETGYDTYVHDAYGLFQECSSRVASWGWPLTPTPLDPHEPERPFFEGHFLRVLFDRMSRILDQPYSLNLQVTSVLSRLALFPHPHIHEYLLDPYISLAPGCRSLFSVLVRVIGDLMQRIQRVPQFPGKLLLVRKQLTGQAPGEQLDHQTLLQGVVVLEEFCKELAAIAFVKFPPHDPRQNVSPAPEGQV

- binding against the reference (14-3-3θ): lost
Molecule: RAI16 (retinoic acid induced 16) (from UniProt Q86V87) S325A

- fold change of co-precipitated 14-3-3θ with forskolin against untreated cells [1]: 3.25 fold
B1: endogenous 14-3-3θ (natural protein, human (endogenous in HEK293T), UniProt P27348 1-245, looked up)
chain: MEKTELIQKAKLAEQAERYDDMATCMKAVTEQGAELSNEERNLLSVAYKNVVGGRRSAWRVISSIEQKTDTSDKKLQLIKDYREKVESELRSICTTVLELLDKYLIANATNPESKVFYLKMKGDYFRYLAEVACGDDRKQTIDNSQGAYQEAFDISKKEMQPTHPIRLGLALNFSVFYYEILNNPELACTLAKTAFDEAIAELDTLNEDSYKDSTLIMQLLRDNLTLWTSDSAGEECDAAEGAEN
notes: 14-3-3 protein theta, endogenous in HEK293T cells; source: endogenous, HEK293T lysate

— publication PMC4558169, “Anchoring of both PKA-RIIα and 14-3-3θ regulates retinoic acid induced 16 mediated phosphorylation of heat shock protein 70” (Oncotarget, 2015)
